Laboratory results taken from patent publication US20260146107A1 (ALLIGATOR BIOSCIENCE, published 2026).

T1: human CEACAM5, recombinant (R&D Systems #4128-CM-050) (human, UniProt P06731 35-685)
T1 construct: Bought; coated in ELISA and used as monomeric analyte in Octet; also called hCEACAM-5; Human CEACAM5-His; not shown: His tag
T1 sequence (looked up): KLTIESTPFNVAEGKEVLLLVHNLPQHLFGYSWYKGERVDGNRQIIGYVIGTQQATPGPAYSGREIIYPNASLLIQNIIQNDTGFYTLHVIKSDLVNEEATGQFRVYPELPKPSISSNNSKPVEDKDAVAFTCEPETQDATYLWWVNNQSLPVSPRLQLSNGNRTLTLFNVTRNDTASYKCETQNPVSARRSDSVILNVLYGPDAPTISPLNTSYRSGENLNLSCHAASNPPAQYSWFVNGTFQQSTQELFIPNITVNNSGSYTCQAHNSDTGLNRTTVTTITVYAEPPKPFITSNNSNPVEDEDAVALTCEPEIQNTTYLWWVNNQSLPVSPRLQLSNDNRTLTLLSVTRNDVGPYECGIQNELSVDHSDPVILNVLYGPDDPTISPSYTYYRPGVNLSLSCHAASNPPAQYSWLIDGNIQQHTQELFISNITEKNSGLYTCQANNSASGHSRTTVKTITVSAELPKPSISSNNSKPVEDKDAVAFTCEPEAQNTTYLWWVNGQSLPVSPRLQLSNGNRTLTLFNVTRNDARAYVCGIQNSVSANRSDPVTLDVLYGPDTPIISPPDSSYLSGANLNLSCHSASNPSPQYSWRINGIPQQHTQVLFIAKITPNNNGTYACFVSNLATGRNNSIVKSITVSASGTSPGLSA

T2: human CEACAM1, recombinant (R&D Systems #2244-CM-050) (human, UniProt P13688 35-428)
T2 construct: also called hCEACAM-1
T2 sequence (looked up): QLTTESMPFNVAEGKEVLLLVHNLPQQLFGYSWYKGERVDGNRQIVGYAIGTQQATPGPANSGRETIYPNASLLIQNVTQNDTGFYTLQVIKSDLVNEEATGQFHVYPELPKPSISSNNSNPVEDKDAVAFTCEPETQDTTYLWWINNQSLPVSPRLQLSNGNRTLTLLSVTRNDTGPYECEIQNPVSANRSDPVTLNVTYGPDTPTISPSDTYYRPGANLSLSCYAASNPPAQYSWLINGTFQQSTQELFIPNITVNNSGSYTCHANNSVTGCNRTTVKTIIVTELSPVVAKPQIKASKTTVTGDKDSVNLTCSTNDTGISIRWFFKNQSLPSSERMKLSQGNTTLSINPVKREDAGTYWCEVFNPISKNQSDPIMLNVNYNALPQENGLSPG


How the values were obtained:
[1] = molecular target: T1, human CEACAM5, recombinant (R&D Systems …); assay: Octet BLI, IgG1 captured on AHC tips, CEACAM5-His in solution, 1:1 fit
Experimental: Kinetic measurements were performed in the Octet RED96 platform using several different setups. Monoclonal antibodies (listed in Table 9), serially diluted ½ starting at 100 nM, were captured to anti human IgG Fc Capture (AHC) Biosensor tips (Sartorius #18-5060). Human CEACAM5-His (R&D Systems #4128-CM-050) diluted in 1× kinetic buffer (Sartorius) at 100 nM was then added. Binding kinetics was studied in 1× kinetic buffer where association was allowed for 300 sec followed by dissociation for 600 sec. Sensor tips were regenerated with 10 mM Glycine pH 1.7. Data generated were referenced by subtracting blank or parallel buffer blank, the baseline was aligned to the y-axis, inter-step correction by alignment against dissociation was performed and the data was smoothed by Savitzky-Golay filter in the data analysis software (v9.0.0.14). The processed data was fitted using a 1:1 Langmuir binding model with R² or X² as a measurement of fitting accuracy.

[2] = molecular target: T2, human CEACAM1, recombinant (R&D Systems …); assay: ELISA, antigen coated at 0.5 µg/mL, IgG1 antibody at 10 µg/ml, anti-human kappa-HRP, luminescence
Experimental: 96-well plates were coated with 0.5 μg/mL antigen, hCEACAM-5 (4128-CM-050, R&D Systems), hCEACAM-1 (2244-CM-050, R&D Systems), hCEACAM-6(3934-CM-050, R&D Systems) or CEACAM-8 (9639-CM-050, R&D Systems) in PBS over night at 4° C. After washing with PBS/0.05% Tween 20 (PBST), the plates were blocked with PBST, 2% BSA for at least 30 minutes at room temperature before a second round of washing. […] After washing, plates were incubated with 50 μl detection antibody (0.5 μg/ml HRP conjugated goat anti human-kappa light chain, #STAR127P, AbD Serotec). Finally, a final round of washing was performed and bound complexes detected using SuperSignal Pico Luminescent as substrate and luminescence signals were measured using Fluostar Optima.

[3] = molecular target: human CD40 expressed on cells (CD40 reporter cells, HEK Blue CD40L cells, primary B cells, tumour APCs) (human, UniProt P25942 21-277); assay: cell-based or functional assay
Sequence of human CD40 expressed on cells (CD40 reporter cells, HEK Blue CD40L cells, primary B cells, tumour APCs) (P25942 21-277): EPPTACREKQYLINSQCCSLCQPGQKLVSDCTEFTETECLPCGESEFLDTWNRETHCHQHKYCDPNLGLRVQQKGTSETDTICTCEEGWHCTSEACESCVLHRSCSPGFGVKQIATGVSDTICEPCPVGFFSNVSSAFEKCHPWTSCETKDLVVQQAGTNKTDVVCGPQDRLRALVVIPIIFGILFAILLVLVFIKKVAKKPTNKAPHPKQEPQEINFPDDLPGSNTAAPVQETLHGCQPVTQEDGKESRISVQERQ

Kd [1] [nM] | koff [1] [s⁻¹] | kon [1] [M⁻¹ s⁻¹] | binding result [2] | EC50 of SEAP release, HEK Blue CD40L reporter cells, bsAb crosslinked to CHO-CEACAM5 cells, 0 Raji sink cells/well [3] [nM] | EC50 of SEAP release, same assay, 10 000 Raji sink cells/well [3] [nM] | EC50 of SEAP release, same assay, 30 000 Raji sink cells/well [3] [nM] | EC50 of SEAP release, same assay, 90 000 Raji sink cells/well [3] [nM] | Binder
100 | 0.008 | 60000 | no binding (tested: 10 µg/ml) | – | – | – | – | AC_05081 (antibody, human IgG1, kappa, V domains shown) VH: EVQLLESGGGLVQPGGSLRLSCAASGFTFSSSYMGWVRQAPGKGLEWVSSIGSGSYSTSYADSVKGRFTISRDNSKNTLYLQMNSLRAEDTAVYYCARYPSVPFQPHLDYWGQGTLVTVSS VL: DIQMTQSPSSLSASVGDRVTITCRASQSISSYLNWYQQKPGKAPKLLIYAASSLQSGVPSRFSGSGSGTDFTLTISSLQPEDFATYYCQQAGNPHTFGQGTKLEIKR
0.008 | 2e-06 | 200000 | binds | – | – | – | – | AC_05080 (antibody, V domains shown) VH: EVQLLESGGGLVQPGGSLRLSCAASGFTFSSSYMGWVRQAPGKGLEWVSSIGSGSYSTSYADSVKGRFTISRDNSKNTLYLQMNSLRAEDTAVYYCARYPSVPFPPLLDYWGQGTLVTVSS VL: DIQMTQSPSSLSASVGDRVTITCRASQSISSYLNWYQQKPGKAPKLLIYAASSLQSGVPSRFSGSGSGTDFTLTISSLQPEDFATYYCQQAGNPHTFGQGTKLEIK
< 0.001 | < 1e-07 | 300000 | – | – | – | – | – | AC_05059 (antibody, human IgG1, kappa, V domains shown) VH: EVQLLESGGGLVQPGGSLRLSCAASGFTFSSSYMGWVRQAPGKGLEWVSSIGSGSYSTSYADSVKGRFTISRDNSKNTLYLQMNSLRAEDTAVYYCARYPSVPFPPHLDYWGQGTLVTVSS VL: DIQMTQSPSSLSASVGDRVTITCRASQSISSYLNWYQQKPGKAPKLLIYAASSLQSGVPSRFSGSGSGTDFTLTISSLQPEDFATYYCQQAGNPHTFGQGTKLEIKR
40 | 0.01 | 300000 | no binding (tested: 10 µg/ml) | – | – | – | – | AC_05089 (antibody, human IgG1, kappa, V domains shown) VH: EVQLLESGGGLVQPGGSLRLSCAASGFTFSSSYMGWVRQAPGKGLEWVSSIGSGSYSTSYADSVKGRFTISRDNSKNTLYLQMNSLRAEDTAVYYCARYPSVPFPHHLDYWGQGTLVTVSS VL: DIQMTQSPSSLSASVGDRVTITCRASQSISSYLNWYQQKPGKAPKLLIYAASSLQSGVPSRFSGSGSGTDFTLTISSLQPEDFATYYCQQAGNPHTFGQGTKLEIKR
0.4 | 0.0001 | 300000 | no binding (tested: 10 µg/ml) | – | – | – | – | AC_05093 (antibody, human IgG1, kappa, V domains shown) VH: EVQLLESGGGLVQPGGSLRLSCAASGFTFSSSYMGWVRQAPGKGLEWVSSIGSGSYSTSYADSVKGRFTISRDNSKNTLYLQMNSLRAEDTAVYYCARYPSVPFPPHVDYWGQGTLVTVSS VL: DIQMTQSPSSLSASVGDRVTITCRASQSISSYLNWYQQKPGKAPKLLIYAASSLQSGVPSRFSGSGSGTDFTLTISSLQPEDFATYYCQQAGNPHTFGQGTKLEIKR
50 | 0.0008 | 20000 | no binding (tested: 10 µg/ml) | – | – | – | – | AC_05094 (antibody, human IgG1, kappa, V domains shown) VH: EVQLLESGGGLVQPGGSLRLSCAASGFTFSSSYMGWVRQAPGKGLEWVSSIGSGSYSTSYADSVKGRFTISRDNSKNTLYLQMNSLRAEDTAVYYCARYPSVPFPPHWDYWGQGTLVTVSS VL: DIQMTQSPSSLSASVGDRVTITCRASQSISSYLNWYQQKPGKAPKLLIYAASSLQSGVPSRFSGSGSGTDFTLTISSLQPEDFATYYCQQAGNPHTFGQGTKLEIKR
20 | 0.004 | 300000 | no binding (tested: 10 µg/ml) | – | – | – | – | AC_05090 (antibody, human IgG1, kappa, V domains shown) VH: EVQLLESGGGLVQPGGSLRLSCAASGFTFSSSYMGWVRQAPGKGLEWVSSIGSGSYSTSYADSVKGRFTISRDNSKNTLYLQMNSLRAEDTAVYYCARYPSVPFPLHLDYWGQGTLVTVSS VL: DIQMTQSPSSLSASVGDRVTITCRASQSISSYLNWYQQKPGKAPKLLIYAASSLQSGVPSRFSGSGSGTDFTLTISSLQPEDFATYYCQQAGNPHTFGQGTKLEIKR
20 | 0.03 | 1e+06 | no binding (tested: 10 µg/ml) | – | – | – | – | AC_05088 (antibody, human IgG1, kappa, V domains shown) VH: EVQLLESGGGLVQPGGSLRLSCAASGFTFSSSYMGWVRQAPGKGLEWVSSIGSGSYSTSYADSVKGRFTISRDNSKNTLYLQMNSLRAEDTAVYYCARYPSVLFPPHLDYWGQGTLVTVSS VL: DIQMTQSPSSLSASVGDRVTITCRASQSISSYLNWYQQKPGKAPKLLIYAASSLQSGVPSRFSGSGSGTDFTLTISSLQPEDFATYYCQQAGNPHTFGQGTKLEIKR
2 | 0.0003 | 200000 | no binding (tested: 10 µg/ml) | – | – | – | – | AC_05091 (antibody, human IgG1, kappa, V domains shown) VH: EVQLLESGGGLVQPGGSLRLSCAASGFTFSSSYMGWVRQAPGKGLEWVSSIGSGSYSTSYADSVKGRFTISRDNSKNTLYLQMNSLRAEDTAVYYCARYPSVPFPPHFDYWGQGTLVTVSS VL: DIQMTQSPSSLSASVGDRVTITCRASQSISSYLNWYQQKPGKAPKLLIYAASSLQSGVPSRFSGSGSGTDFTLTISSLQPEDFATYYCQQAGNPHTFGQGTKLEIKR
0.07 | 2e-05 | 200000 | no binding (tested: 10 µg/ml) | – | – | – | – | AC_05097 (antibody, human IgG1, kappa, V domains shown) VH: EVQLLESGGGLVQPGGSLRLSCAASGFTFSSSYMGWVRQAPGKGLEWVSSIGSGSYSTSYADSVKGRFTISRDNSKNTLYLQMNSLRAEDTAVYYCARYPSVPFSPHLDYWGQGTLVTVSS VL: DIQMTQSPSSLSASVGDRVTITCRASQSISSYLNWYQQKPGKAPKLLIYAASSLQSGVPSRFSGSGSGTDFTLTISSLQPEDFATYYCQQAGNPHTFGQGTKLEIKR
– | – | – | – | 0.04 | 0.06 | 0.11 | 0.36 | Multi42 (bispecific antibody, human IgG1, kappa, L234A L235A) chain 1: not shown chain 2: EIVLTQSPGTLSLSPGERATLSCRASQSVSSSYLAWYQEKPGQAPRLLIYGASSRATGIPDRFSGSGSGTDFTLTISRLEPEDFAVYYCQQYWYPLTFGQGTKLEIKRTVAAPSVFIFPPSDEQLKSGTASVVCYLNNFYPREAKVQWKVDNALQSGNSQESVTEQDSKDSTYSLWSTLTLSKADYEKHKVYACEVTHQGLSSPVTKSFNRGEC chain 3: EVQLLESGGGLVQPGGSLRLSCAASGFTFSTYGMHWVREAPGKGLEWLSYISGGSSYIFYADSVKGRFTISRDNSKNTLYLQMNSLRAEDTAVYYCARILRGGSGMDLWGQGTLVTVSSASTKGPSVFPLAPSSKSTSGGTAALGCLVKDYFPEPVTVSWNSGALTSGVHTFPAVLQSSGLYSLTSVVEVPSSSLGTQTYICNVNHKPSNTKVDKKVEPKSC
– | – | – | no binding (tested: 10 µg/ml) | – | – | – | – | AC_05099 (antibody, V domains shown) VH: not shown VL: DIQMTQSPSSLSASVGDRVTITCRASQSISSYLNWYQQKPGKAPKLLIYAASSLQSGVPSRFSGSGSGTDFTLTISSLQPEDFATYYCQQAGNPHTFGQGTKLEIK
